According to US20260193356A1 (BIOCYTOGEN PHARMACEUTICALS BEIJING, published 2026):

T1: His-tagged human PDL2 protein (hPDL2-his, ACROBiosystems Inc., Cat #: PD2-H5220) (human, UniProt Q9BQ51 20-219)
T1 construct: Bought protein; not shown: His tag
T1 sequence (looked up): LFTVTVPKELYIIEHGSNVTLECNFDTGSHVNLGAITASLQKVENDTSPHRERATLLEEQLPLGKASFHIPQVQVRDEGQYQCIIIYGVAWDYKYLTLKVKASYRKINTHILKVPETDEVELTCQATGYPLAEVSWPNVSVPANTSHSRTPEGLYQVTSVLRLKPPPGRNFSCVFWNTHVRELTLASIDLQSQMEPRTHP

T2: His-tagged human B7-H3 protein (hB7-H3-his, ACROBiosystems Inc., Cat #: B73-H52E2) (human, UniProt Q5ZPR3-2 29-245)
T2 construct: Bought protein; not shown: His tag
T2 sequence (looked up): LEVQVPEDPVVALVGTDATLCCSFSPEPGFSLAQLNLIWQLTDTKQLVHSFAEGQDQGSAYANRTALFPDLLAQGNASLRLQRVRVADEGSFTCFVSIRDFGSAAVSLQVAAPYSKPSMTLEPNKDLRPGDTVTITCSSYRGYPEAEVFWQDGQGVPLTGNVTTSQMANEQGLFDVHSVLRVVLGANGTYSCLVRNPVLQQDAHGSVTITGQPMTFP

T3: His-tagged human B7-H2 protein (hB7-H2-his, ACROBiosystems Inc., Cat #: B72-H5221) (human, UniProt O75144 19-258)
T3 construct: Bought protein; not shown: His tag
T3 sequence (looked up): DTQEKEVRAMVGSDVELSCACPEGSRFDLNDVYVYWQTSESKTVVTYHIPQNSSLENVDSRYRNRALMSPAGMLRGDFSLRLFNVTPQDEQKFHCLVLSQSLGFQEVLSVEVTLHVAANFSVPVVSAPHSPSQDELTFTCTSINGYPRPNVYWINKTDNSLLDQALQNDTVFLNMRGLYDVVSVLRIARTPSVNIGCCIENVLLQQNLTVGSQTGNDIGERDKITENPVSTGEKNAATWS

T4: His-tagged human B7-1 protein (hB7-1-his, Kactus, Cat #: B71-HM480) (human, UniProt P33681 35-242)
T4 construct: Bought protein; not shown: His tag
T4 sequence (looked up): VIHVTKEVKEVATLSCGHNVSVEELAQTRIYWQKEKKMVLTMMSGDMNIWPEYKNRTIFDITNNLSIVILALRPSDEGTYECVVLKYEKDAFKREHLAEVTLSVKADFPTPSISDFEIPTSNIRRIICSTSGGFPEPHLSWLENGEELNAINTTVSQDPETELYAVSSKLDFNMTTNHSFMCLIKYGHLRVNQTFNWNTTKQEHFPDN

B1: B20A09-N297A (antibody, V domains shown)
VH: QVQLQQSGPGLVKPSQTLSLTCAISRDGVSNISGAWNWIRQSPSRGLEWLGRTYYRAMWYKDYALSVKSRITINPDTSKNQFSLQLNSVTPEDTAVYYCAREEYSRGWGAFDIWGQGTMVTVSS
VL: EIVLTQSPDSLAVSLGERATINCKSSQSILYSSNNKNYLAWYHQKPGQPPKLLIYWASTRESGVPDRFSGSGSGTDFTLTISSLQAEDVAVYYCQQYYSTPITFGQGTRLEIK
B2: B20B02-N297A (antibody, human IgG1, V domains shown)
VH: QVQLQQSGGGVVQPGRSLRLSCAASGFTFSTYGMHWVRQAPGKGLEWVAALSFDGGNIYYGDSVKGRFTISRDNSKNTLYLQMNSLRAEDTALYYCAKARLPYSYDAVDYWGQGTLVTVSS
VL: EIVMTQSPATLSVSPGERATLSCRASQSVSSNLAWYQQKPGQAPRLLIYDTSTRAIGIPARFSGSGSGTEFTLTISSLQSEDFAIYYCHQYNFWPPITLGQGTRLEIK
B3: B21A06-N297A (antibody, human IgG1, V domains shown)
VH: QVQLQESGGDVVQPGRSLRLSCAASGFTFNNYGMHWVRQAPSKGLEWVAFIWYDGSNKYYGDSVKGRFTISRDNSKNTLYLQMNSLRAEDTALYYCARGDNWNSDAFDIWGPGTMVTVSS
VL: EIVMTQSPLSLPVTLGQPASISCRSSQSLVYTNGNTYLNWFQQRPGQSPRRLIYKVSSRDSGVPDRFSGSGSGTDFTLKISRVAAEDVGLYYCMQGTHWPLTFGGGTKVEIK
B4: B22E02-N297A (antibody, human IgG1, V domains shown)
VH: QVQLVQSGGGLVQPGRSLRLSCRASGFTFDGYSMNWVRQAPGKGLEWVGFIRSKGYGGTSESAASVKGRFTISRDDSKSIAYLQMNSLKTEDTAVYYCTRTRNWNDEGYFDYWGLGTLVTVSS
VL: DIQMTQSPSSLSASVGDRVTITCQASQDINKYLNWYQQKPGKAPKLLIYDASNSETGVPSRFSGSGSGTDFTFTISSLQPEDISTYYCQQYDILPITFGQGTRLEIK
notes: Human IgG1 with N297A (EU numbering) in the Fc

How the values were obtained:
[1] = target: human PDL1 on helper cells CHO-aAPC-hPDL1 (Promega, Cat #: J1081) (human, UniProt Q9NZQ7 19-290); assay: cell-based or functional assay
Sequence of human PDL1 on helper cells CHO-aAPC-hPDL1 (Promega, Cat #: J1081) (Q9NZQ7 19-290 limits assumed): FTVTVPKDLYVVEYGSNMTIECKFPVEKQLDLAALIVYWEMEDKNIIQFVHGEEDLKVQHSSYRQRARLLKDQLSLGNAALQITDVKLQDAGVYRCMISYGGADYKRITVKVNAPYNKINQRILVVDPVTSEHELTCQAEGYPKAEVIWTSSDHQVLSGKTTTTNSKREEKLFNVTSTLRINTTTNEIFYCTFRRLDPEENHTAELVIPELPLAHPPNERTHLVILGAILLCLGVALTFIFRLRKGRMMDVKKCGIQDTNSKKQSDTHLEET

[2] = target: T5, human PDL1 (hPDL1) expressed on CHO-S cells (CHO-S-hPDL1) (human, UniProt Q9NZQ7 19-290); assay: flow cytometry on CHO-S-hPDL1 cells; antibody 1 µg/mL
T5 sequence (Q9NZQ7 19-290 limits assumed): as above
Procedure: (§1) Then, after one wash with PBS, the cells were incubated with the secondary antibody anti-hIgG-Fc-Alex Flour 647 (RL1-H) (Jackson ImmunoResearch Laboratories, Inc., 109-606-170) at 4° C. for 15 minutes before flow cytometry analysis.

[3] = target: T6, mouse (Mus musculu) PDL1 (mPDL1) expressed on CHO-S cells (CHO-S-mPDL1) (mouse, UniProt Q9EP73 19-290); assay: flow cytometry on CHO-S-mPDL1 cells; antibody 1 µg/mL
T6 sequence (Q9EP73 19-290 limits assumed): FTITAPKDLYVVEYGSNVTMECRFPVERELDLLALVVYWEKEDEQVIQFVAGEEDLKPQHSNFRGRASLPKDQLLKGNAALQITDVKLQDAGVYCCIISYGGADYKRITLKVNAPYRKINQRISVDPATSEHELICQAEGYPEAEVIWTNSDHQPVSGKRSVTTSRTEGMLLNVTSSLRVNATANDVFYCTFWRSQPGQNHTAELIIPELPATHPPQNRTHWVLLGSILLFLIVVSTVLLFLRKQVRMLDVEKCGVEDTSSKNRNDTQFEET
Procedure: as §1

[4] = target: T7, monkey (Macaca fascicularis) PDL1 (fasPDL1) expressed on CHO-S cells (CHO-S-fasPDL1) (monkey (Macaca fascicularis), UniProt Q9NZQ7 19-290 (human entry)); assay: flow cytometry on CHO-S-fasPDL1 cells; antibody 1 µg/mL
T7 sequence (Q9NZQ7 other isoform, or with tags, fused parts or gaps limits assumed): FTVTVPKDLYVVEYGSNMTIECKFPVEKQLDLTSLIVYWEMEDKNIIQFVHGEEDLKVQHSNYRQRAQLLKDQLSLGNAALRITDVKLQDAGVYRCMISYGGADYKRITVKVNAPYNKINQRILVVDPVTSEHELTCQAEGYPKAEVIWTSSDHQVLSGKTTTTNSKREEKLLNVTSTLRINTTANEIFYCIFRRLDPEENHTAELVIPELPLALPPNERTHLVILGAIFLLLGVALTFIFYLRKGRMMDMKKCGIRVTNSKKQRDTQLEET
Procedure: as §1

[5] = target: T5, human PDL1 (hPDL1) expressed on CHO-S …; assay: flow cytometry on CHO-S-hPDL1 cells; antibody 0.1 µg/mL
Procedure: as §1

[6] = target: T6, mouse (Mus musculu) PDL1 (mPDL1) …; assay: flow cytometry on CHO-S-mPDL1 cells; antibody 0.1 µg/mL
Procedure: as §1

[7] = target: T7, monkey (Macaca fascicularis) PDL1 …; assay: flow cytometry on CHO-S-fasPDL1 cells; antibody 0.1 µg/mL
Procedure: as §1

[8] = target: T1, His-tagged human PDL2 protein …; assay: SPR Biacore 8K, antibody captured on Protein A chip, His-tagged antigen as analyte
Procedure: (§2) The His-tagged antigen protein at a concentration of 200 nM was then injected at 30 μL/min for 180 seconds. Dissociation was monitored for 400 seconds. The chip was regenerated after the last injection of each titration with Glycine (pH 2.0, 30 μL/min for 30 seconds).

[9] = target: T2, His-tagged human B7-H3 protein …; assay: as above
Procedure: as §2

[10] = target: T3, His-tagged human B7-H2 protein …; assay: as above
Procedure: as §2

[11] = target: T4, His-tagged human B7-1 protein …; assay: as above
Procedure: as §2

[12] = target: T8, His-tagged human PDL1 protein (hPDL1-his, ACROBiosystems Inc., Cat #: PD1-H5229) (human, UniProt Q9NZQ7 19-238); assay: SPR Biacore 8K, antibody captured on Protein A chip, His-tagged antigen as analyte, 1:1 model
T8 construct: Bought protein; not shown: His tag
T8 sequence (Q9NZQ7 19-238 limits assumed): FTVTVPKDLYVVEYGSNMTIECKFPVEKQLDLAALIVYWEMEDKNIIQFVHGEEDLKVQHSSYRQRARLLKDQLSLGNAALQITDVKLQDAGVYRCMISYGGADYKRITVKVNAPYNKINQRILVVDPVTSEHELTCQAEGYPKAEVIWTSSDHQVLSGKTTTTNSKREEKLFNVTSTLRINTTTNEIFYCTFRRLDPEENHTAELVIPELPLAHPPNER
Procedure: (§3) Dissociation was monitored for 400 seconds. The chip was regenerated after the last injection of each titration with Glycine (pH 2.0, 30 μL/min for 30 seconds).

[13] = target: T9, His-tagged Macaca fascicularis PDL1 protein (fasPDL1-his, ACROBiosystems Inc., Cat #: PD1-C52H4) (Macaca fascicularis, UniProt Q9NZQ7 19-238 (human entry)); assay: as above
T9 construct: Bought protein; also called monkey PDL1; not shown: His tag
T9 sequence (Q9NZQ7 other isoform, or with tags, fused parts or gaps limits assumed): as the sequence (Q9NZQ7 19-238 limits assumed) above, with A33T, A34S, S62N, R68Q, Q82R, F173L, T185A, T192I, H215L counted along it
Procedure: as §3

[14] = target: T10, His-tagged mouse PDL1 protein (mPDL1-his, ACROBiosystems Inc., Cat #: PD1-M5220) (mouse, UniProt Q9EP73 19-238); assay: as above
T10 construct: Bought protein; not shown: His tag
T10 sequence (Q9EP73 19-238 limits assumed): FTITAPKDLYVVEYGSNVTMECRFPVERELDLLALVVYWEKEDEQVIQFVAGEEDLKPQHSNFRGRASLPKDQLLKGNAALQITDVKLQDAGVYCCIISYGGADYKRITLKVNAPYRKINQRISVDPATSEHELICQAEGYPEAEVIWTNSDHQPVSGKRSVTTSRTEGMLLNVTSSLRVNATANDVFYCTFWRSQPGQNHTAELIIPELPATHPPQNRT
Procedure: as §3

Binder | IC50 (µg/mL), Blockade of the binding of PDL1 and PD-1 (luciferase, CHO-aAPC-hPDL1 + Jurkat-Luc-hPD1 cells) [1] [µg/mL] | Percentage of Positive Cells (%) [2] [%] | Percentage of Positive Cells (%) [3] [%] | Percentage of Positive Cells (%) [4] [%] | Percentage of Positive Cells (%) [5] [%] | Percentage of Positive Cells (%) [6] [%] | Percentage of Positive Cells (%) [7] [%] | binding result [8] | binding result [9] | binding result [10] | binding result [11] | Kd [12] [nM] | koff [12] [s⁻¹] | kon [12] [M⁻¹ s⁻¹] | Kd [13] [nM] | koff [13] [s⁻¹] | kon [13] [M⁻¹ s⁻¹] | Kd [14] [nM] | koff [14] [s⁻¹] | kon [14] [M⁻¹ s⁻¹]
B1 | 0.789 | 83.1 | 79 | 72 | 69.9 | 67.8 | 64.2 | no binding (tested: 200 nM) | no binding (tested: 200 nM) | no binding (tested: 200 nM) | no binding (tested: 200 nM) | 4.6 | 0.000721 | 157000 | 2.95 | 0.000612 | 207000 | 41.5 | 0.00955 | 230000
B2 | 1.13 | 89.3 | 87.3 | 79.8 | 69 | 70.6 | 65.9 | no binding (tested: 200 nM) | no binding (tested: 200 nM) | no binding (tested: 200 nM) | no binding (tested: 200 nM) | 1.16 | 0.000184 | 159000 | 0.672 | 0.000146 | 217000 | 1.28 | 0.000168 | 131000
B3 | 1.14 | 83.2 | 75.2 | 70.2 | 65.8 | 65.2 | 65 | no binding (tested: 200 nM) | no binding (tested: 200 nM) | no binding (tested: 200 nM) | no binding (tested: 200 nM) | 8.65 | 0.00167 | 193000 | 5.77 | 0.00156 | 271000 | 8.04 | 0.00187 | 232000
B4 | 0.745 | 87.1 | 77.1 | 74.4 | 72.2 | 66.1 | 66.9 | no binding (tested: 200 nM) | no binding (tested: 200 nM) | no binding (tested: 200 nM) | no binding (tested: 200 nM) | 1.29 | 0.000411 | 318000 | 0.765 | 0.000331 | 432000 | 17.6 | 0.00152 | 86200
